These results are taken from patent publication US20240025971A1.

The target in the experiment is SARS-CoV-2 Spike (S) trimer (SARS-CoV-2), P0DTC2. Description: ELISA, S trimer coated, 1:50 dilution. The note with it: remark: other sources report otherwise. (ELISA stands for enzyme-linked immunosorbent assay.)

B1: AB-009174 (antibody, V domains shown)
VH: QVQLQQWGAGLLKPSETLSLTCAVYGESFSGYYWNWIRQPPGKGLEWIGEIDQSGSTNYNPSLKSRVTISVDTSKNQFSLKLTSVTAADTAVYYCARVSGRMQLWLRAGYMDVWDKGTTVTVSS
VL: QSALTQPASVSGSPGQSITISCTGTSSDVGRYNYVSWYQQHPGKAPKLMIYEVSNRPSGVSNRFSGSKSGNTASLTISGLQAEDEADYYCSSYTTSSTRVFGGGTKLTVL
With B1, the Optical Density (OD; 450 nm) amounted to 0.154 OD450.

B2: AB-009231 (antibody, V domains shown)
VH: EVQLVESGGGLVQPGGSLRLSCAASGFTFSSYWMSWVRQAPGKGLEWVANIKQDGSEKYYVDSVKGRFTISRDNAKNSLYLQMNSLRAEDTAVYYCARVSMRFLEWSFYYYYYMDVWGKGTTVTVSS
VL: SSELTQDPAVSVALGQTVRITCQGDSLRSYYASWYQQKPGQAPVLVIYGKNNRPSGIPDRFSGSSSGNTASLTITGAQAEDEADYYCNSRDSSGNHLGVVFGGGTKLTVL
Molecule B2 showed an Optical Density (OD; 450 nm) of 0.46 OD450.

B3: AB-009202 (antibody, V domains shown)
VH: QVQLVESGGGVVQPGRSLRLSCAASGFTFSSYGMHWVRQAPGKGLEWVAVIWYDGSNKYYADSVKGRFTISRDNSKNTLYLQMNSLRAEDTAVYYCARDGGPEYYFDYWGQGTLVTVSS
VL: SYELTQPPSVSVSPGQTARITCSGDALPKQYAYWYQQKPGQAPVLVIYKDSERPSGIPERFSGSSSGTTVTLTISGVQAEDEADYYCQSADSSGTYNVVFGGGTKLTVL
B3 displayed an Optical Density (OD; 450 nm) of 1.99 OD450.

B4: AB-009237 (antibody, V domains shown)
VH: QVQLLQSGAEVKKPGASVSVSCKASGFTFTSYYFHWVRQAPGQGLEWMGIVSPAGGSTNYAQKFQGRVTMTRDTSTSTVHMELRNVRYDDTAVFYCARSVYCSSPSCPHGMDVWGPGTMVTVSS
VL: DIQVTQSPSTLSASVGDRVTITCRASQSILTYLAWYQQKPGKAPNLLIYKASNLQSGVPSRFSGSGSGTEFTLTISSLQPDDFATYHCQQYKSYPFSFGQGTKLAIK
Consider B4, for which the Optical Density (OD; 450 nm) was determined as 0.228 OD450.

B5: AB-009244 (antibody, V domains shown)
VH: EVQLVESGGGLVQPGGSLRLSCAASGFAFNTYGINWVRQAPGKGLEWVSFISSRSTTIHYADSVRGRFTISRDNAKNSLYLQMNNLRDEDTAVYYCARDLLIWFGETGAFDIWGQGTMVTVSS
VL: EVVMTQSPATLSVSSGERVTLSCRASQSVSNNLAWYQQKPGQAPRLLIYGASTRATGFPARFSGSGSGTEFTLTISSLQSEDFAVYYCQQYNIWPPGTFGQGTKLEIK
In turn, B5 had an Optical Density (OD; 450 nm) of 0.239 OD450.

B6: AB-009108 (antibody, V domains shown)
VH: QVQLQESGPGLVKPSETLALTCTVSGDSIINNNFYWGWLRQPPGQGLEWIGSLFHTGSAYYNSSLKSRVRSSVDTARNQISLRLSSVTAADTAVYYCARVNIVSVPAPPGAIEGWFDPWGQGTRVTVSP
VL: SYELTQPPSVSVSLGQTARISCSGDALPTKYVHWYQQKAGQAPVVVIFRDTERPSEIPERFSGSSSGTTVTLTISGVQAEDEADYYCQSVDGSGFYVFGSGTKVTVL
Regarding B6, the Optical Density (OD; 450 nm) amounted to 0.28 OD450.

B7: AB-009627 (antibody, V domains shown)
VH: QVQLQQWGAGLLKPSETLSLTCAVYGGSFSGYYWSWIRQPPGKGLEWIGEINHSGSTNYNPSLKSRVTISVDTSKNQFSLKLSSVTAADTAVFYCARGGYSSSWYGEKYWFDPWGQGTLVTVSS
VL: QSALTQPRSVSGSPGQSVTISCTGTSSDVGGYNYVSWYQQHPGKAPKLMIYDVSKRPSGVPDRFSGSKSGNTASLTISGLQAEDEADYYCCSYAGSPYVFGTGTKVTVL
Take B7: the Optical Density (OD; 450 nm) amounted to 0.823 OD450.
